Target: Hfq (Escherichia coli, UniProt P0A6X3 1-102)
Experiment: EMSA; 1 mM Mg2+; Hfq up to 100 nM
Settings: protein: recombinant; chain copies: 6; label: 32P; predicted 4-bp helix

Chain of Hfq (P0A6X3 whole entry): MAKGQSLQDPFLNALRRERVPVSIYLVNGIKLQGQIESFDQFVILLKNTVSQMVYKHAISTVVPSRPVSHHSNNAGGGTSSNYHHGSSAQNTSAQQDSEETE

Binder: UAACGUUAAGUUGACUCGGG (ssRNA) [mature 24B_1 RNA, 20 nt]
- binding result: no binding
